This note sets out measurements from the supplement of paper PMC10567573.

B1: CPOX (parent)
chain: HAPTIHFNYRYFEVEEADGNKQWW
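Also: lentivirally expressed fusions sorted by FACS into six bins by GFP to DsRed ratio, PSI derived from sequencing read proportions per bin multiplied by bin number.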

The variants in this data set derive from B1. Put plainly: protein stability index of a GFP-peptide fusion (GPS, HEK-293T) (PSI 1-6); higher = more stable. The settings on record: c terminus: a fixed tail appended.
Turning to HAPTIHFNYRYFEVEEADGNKQEW, the protein stability index turned out to be 4.22.

For HAPTIHFNYRYFEVEEADGNKQCW, the protein stability index was found to be 2.07. The same measure for HAPTIHFNYRYFEVEEADGNKQVW: 2.36.

In the case of HAPTIHFNYRYFEVEEADGNKQSW, the protein stability index turned out to be 3.19. As for HAPTIHFNYRYFEVEEADGNKQHW, the figure is 3.06; as for HAPTIHFNYRYFEVEEADGNKQIW, 2.58. The same measure for HAPTIHFNYRYFEVEEADGNKQNW: 3.71. As for HAPTIHFNYRYFEVEEADGNKQKW, the figure is 3.35; as for HAPTIHFNYRYFEVEEADGNKQFW, 2.04.

For the variant HAPTIHFNYRYFEVEEADGNKQPW, the protein stability index worked out at 3.34. With HAPTIHFNYRYFEVEEADGNKYWW, the protein stability index was 2.5. As for HAPTIHFNYRYFEVEEADGNKPWW, the figure is 2.56. In the case of HAPTIHFNYRYFEVEEADGNKRWW, the protein stability index came to 2.5. On to HAPTIHFNYRYFEVEEADGNKHWW, for which the protein stability index stood at 2.03. Turning to HAPTIHFNYRYFEVEEADGNKIWW, the protein stability index worked out at 2.3. As for HAPTIHFNYRYFEVEEADGNKDWW, the figure is 3.12; as for HAPTIHFNYRYFEVEEADGNKSWW, 1.59. In the case of HAPTIHFNYRYFEVEEADGNKLWW, the protein stability index worked out at 2.01.

As to HAPTIHFNYRYFEVEEADGNKCWW, the protein stability index was 1.96. With HAPTIHFNYRYFEVEEADGNKWWW, the protein stability index turned out to be 2. As for HAPTIHFNYRYFEVEEADGNKEWW, the figure is 3.35. The same measure for HAPTIHFNYRYFEVEEADGNKMWW: 1.76; for HAPTIHFNYRYFEVEEADGNKFWW: 1.67; for HAPTIHFNYRYFEVEEADGNKVWW: 1.9. As for HAPTIHFNYRYFEVEEADGNKGWW, the figure is 2.46. As for HAPTIHFNYRYFEVEEADGNKAWW, the protein stability index amounted to 1.98. As for HAPTIHFNYRYFEVEEADGNKNWW, the figure is 2.19; as for HAPTIHFNYRYFEVEEADGNKTWW, 2.27; as for HAPTIHFNYRYFEVEEAVGNKQWW, 1.68. In the case of HAPTIHFNYRYFEVEEATGNKQWW, the protein stability index was found to be 1.89.

For HAPTIHFNYRYFEVEEAPGNKQWW, the protein stability index was found to be 1.71. In the case of HAPTIHFNYRYFEVEEAQGNKQWW, the protein stability index came to 3.07.

For the variant HAPTIHFNYRYFEVEEAMGNKQWW, the protein stability index was determined as 1.7.

As for HAPTIHFNYRYFEVEEANGNKQWW, the protein stability index was found to be 2.32. The same measure for HAPTIHFNYRYFEVEEARGNKQWW: 2.18; for HAPTIHFNYRYFEVEEASGNKQWW: 2; for HAPTIHFNYRYFEVEEAYGNKQWW: 1.07. The same measure for HAPTIHFNYRYFEVEEADGNIQWW: 2.25.

With HAPTIHFNYRYFEVEEADGNEQWW, the protein stability index turned out to be 2.53.

On to HAPTIHFNYRYFEVEEADGNAQWW, for which the protein stability index is 2.44. As for HAPTIHFNYRYFEVEEADGNLQWW, the figure is 1.74; as for HAPTIHFNYRYFEVEEADGNWQWW, 1.89; as for HAPTIHFNYRYFEVEEADGNMQWW, 1.54. As for HAPTIHFNYRYFEVEEADGNTQWW, the figure is 1.53; as for HAPTIHFNYRYFEVEEADGNDQWW, 2.52. As for HAPTIHFNYRYFEVEEADGNSQWW, the figure is 1.99; as for HAPTIHFNYRYFEVEEADGNPQWW, 2.25.

Turning to HAPTIHFNYRYFEVEEADGNRQWW, the protein stability index turned out to be 2.43. The same measure for HAPTIHFNYRYFEVEEADGNCQWW: 2.45. The same measure for HAPTIHFNYRYFEVEEADGNYQWW: 1.95; for HAPTIHFNYRYFEVEEADGNVQWW: 2.1.

Consider HAPTIHFNYRYFEVEEADGNNQWW, for which the protein stability index came out at 2.22. As for HAPTIHFNYRYFEVEEADGNGQWW, the figure is 2.44; as for HAPTIHFNYRYFEVEEADGNHQWW, 2.6. Regarding HAPTIHFNYRYFEVEEADGNFQWW, the protein stability index worked out at 1.6. The same measure for HAPTIHFNYRYFEVEEADGNQQWW: 2.67; for HAPTIHFNYRYFEVEEADGNKQWT: 2.86; for HAPTIHFNYRYFEVEEADGNKQWN: 3.06. The same measure for HAPTIHFNYRYFEVEEADGNKQWV: 3.1; for HAPTIHFNYRYFEVEEADGNKQWC: 2.63.

For the variant HAPTIHFNYRYFEVEEADGNKQWE, the protein stability index turned out to be 3.06.

As to HAPTIHFNYRYFEVEEADGNKQWD, the protein stability index worked out at 3.82. The same measure for HAPTIHFNYRYFEVEEADGNKQWY: 2.51. With HAPTIHFNYRYFEVEEADGNKQWF, the protein stability index is 2.69. In the case of HAPTIHFNYRYFEVEEADGNKQWK, the protein stability index amounted to 3.24. Regarding HAPTIHFNYRYFEVEEADGNKQWQ, the protein stability index worked out at 2.34. As for HAPTIHFNYRYFEVEEADGNKQWA, the figure is 3.17; as for HAPTIHFNYRYFEVEEADGNKQWS, 2.91; as for HAPTIHFNYRYFEVEEADGNKQWP, 2.91. The same measure for HAPTIHFNYRYFEVEEADGNKQWR: 3.11; for HAPTIHFNYRYFEVEEADGNKQWG: 2.81. As for HAPTIHFNYRYFEVEEADGNKQWL, the figure is 2.66; as for HAPTIHFNYRYFEVEEADGNKQWI, 3.35; as for HAPTIHFNYRYFEVEEADGNKQWH, 3.03. Take HAPTIHFNYRYFEVEEADGNKQWM: the protein stability index was found to be 3.4. As for HAPTIHFNYRYFEVEEADVNKQWW, the figure is 2.11; as for HAPTIHFNYRYFEVEEADTNKQWW, 2.26. The same measure for HAPTIHFNYRYFEVEEADWNKQWW: 1.79; for HAPTIHFNYRYFEVEEADINKQWW: 2.07. The same measure for HAPTIHFNYRYFEVEEADMNKQWW: 2.06. In the case of HAPTIHFNYRYFEVEEADQNKQWW, the protein stability index amounted to 2.11.

Consider HAPTIHFNYRYFEVEEADCNKQWW, for which the protein stability index was found to be 1.97. As for HAPTIHFNYRYFEVEEADLNKQWW, the figure is 1.87; as for HAPTIHFNYRYFEVEEADPNKQWW, 2.04.

For the variant HAPTIHFNYRYFEVEEADFNKQWW, the protein stability index was 2.46. As for HAPTIHFNYRYFEVEEADDNKQWW, the figure is 3.04. As for HAPTIHFNYRYFEVEEADKNKQWW, the figure is 2.17; as for HAPTIHFNYRYFEVEEADENKQWW, 2.48; as for HAPTIHFNYRYFEVEEADANKQWW, 2.33.

For the variant HAPTIHFNYRYFEVEEADHNKQWW, the protein stability index was found to be 1.8.

As for HAPTIHFNYRYFEVEEADNNKQWW, the protein stability index turned out to be 2.22. The same measure for HAPTIHFNYRYFEVEEADYNKQWW: 3.23. The same measure for HAPTIHFNYRYFEVEEADRNKQWW: 2.25. As for HAPTIHFNYRYFEVEEADSNKQWW, the figure is 2.19.
